{"source": "patent US5612040", "biological_target": "baby hamster kidney (BHK) cells", "experiment": "cell binding to BHK cells at a constant virus/cell ratio (1000:1)"}
{"substance": "foot-and-mouth disease virus (FMDV) type A12, wild-type virus (VRGDF at amino acids 143-147 of VP1)", "values": [{"measurement": "Cell Binding, %", "value": 65, "unit": "%"}]}
